Assay [1] concerns the target T1, recombinant mouse PD-L1 Fc chimera (Sino Biologicals, cat #50010-M02H) (mouse, UniProt Q9EP73 19-238).
T1 construct: Fc part of the bought chimera not given
The assay can be described thus: ELISA on directly coated mouse PD-L1 Fc chimera (1 ug/mL), detection anti-human kappa light chain-HRP. As to the method: (§1) Recombinant human PD-L1 Fc chimera (Sino Biological, cat #10084-H02H), recombinant cynomolgous monkey PD-L1 Fc chimera (Sino Biological, cat #90251-C02H), recombinant mouse PD-L1 Fc chimera (Sino Biologicals, cat #50010-M02H) and recombinant human PD-L2 Fc chimera protein (Sino Biological, cat #10292-H02H) were coated directly onto the ELISA plates at 1 ug/mL by overnight incubation at 4° C. The plates were washed 3× with PBS 0.05% TWEEN® and dried by tapping several times on paper towels. All the plates were blocked with 200 uL of 1% milk for 1 hr at RT. […] Fifty μL of the diluted antibodies were added to the respective wells in all the plates. Positive control antibody (mouse anti-human PD-L1, 29E.2A3, (BioLegend, cat #329702) and its isotype control mouse IgG2b k (BioLegend, cat #400302) were serially diluted 3-fold in 1% milk starting at 3 ug/mL to 0.1 ng/mL and 50 uL of the titrated antibodies were added to their respective plates/wells. Similarly rat anti mouse PD-L1 (BioLegend, cat #124302) and rat IgG2b isotype (BioLegend, cat #400622), anti-human PD-L2 (BioLegend, cat #345502) with mouse IgG1 isotype (BioLegend, cat #4011402) were titrated as above and added to its respective plates/wells. The plates were incubated for 1 hr at RT. […] For the control wells, appropriate secondary antibodies, goat anti mouse HRP (Southern Biotech, cat #1033) and mouse anti rat HRP (Southern Biotech, cat #3070-05), were diluted and incubated as above. After repeating the wash and drying step, the plates were developed for 20-30 min with 50 uL TMB substrate (BD OPTEIA®, cat #555214). The reaction was stopped with 50 uL of 2N H2SO4 and absorbance at 450 nm was read on a SPECTRAMAX® Gemini™ spectrophotometer.
For orientation: In an ELISA, binding on a coated surface is turned into a signal by an enzyme label.

Assay [2] has as its target T2, recombinant human PD-L2 Fc chimera protein (Sino Biological, cat #10292-H02H) (human, UniProt Q9BQ51 20-219).
T2 construct: Fc part of the bought chimera not given
T2 sequence (looked up): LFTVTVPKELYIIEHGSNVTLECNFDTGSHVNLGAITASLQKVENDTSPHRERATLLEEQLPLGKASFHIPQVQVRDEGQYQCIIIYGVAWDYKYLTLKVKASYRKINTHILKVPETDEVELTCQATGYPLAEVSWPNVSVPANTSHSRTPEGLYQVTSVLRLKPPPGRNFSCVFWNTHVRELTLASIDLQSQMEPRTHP
Description: ELISA on directly coated human PD-L2 Fc chimera (1 ug/mL), detection anti-human kappa light chain-HRP. The procedure: as §1

Assay [3] has as its target T3, human PD-L1 expressed on the cell surface (CHO cells expressing human PD-L1; Promega CS187103 / 187103 cells) (human, UniProt Q9NZQ7 19-290). Description: cell-based or functional assay.
Assay [4] concerns the target T4, recombinant cynomolgus monkey PD-L1 Fc chimera (Sino Biological, cat #90251-C02H) (cynomolgus monkey, UniProt G7PSE7 19-239).
T4 construct: also called Cyno PD-L1; Fc part of the bought chimera not given
The assay can be described thus: ELISA on directly coated cynomolgus PD-L1 Fc chimera (1 ug/mL), detection anti-human kappa light chain-HRP. The procedure: as §1

Assay [5] deals with T3, human PD-L1 expressed on the cell …. Description: cell-based or functional assay. The source holds these as a separate data set.
Assay [6] shares this target. The assay can be described thus: cell-based or functional assay. The source holds these as a separate data set.
Assay [7] has the same target. The assay can be described thus: flow cytometry competition on CHO cells expressing human PD-L1; cells pre-incubated with unlabeled antibody, then Alexa Fluor 647-labeled 3C5 (1 µg/mL). As to the method: (§2) Antibody cross-blocking analysis was conducted by the following method. […] Fluorescent staining intensities were determined using the FACSCalibur™ system. Competition of by the identical antibody was a positive control while the lack of competition by the irrelevant antibody was a negative control.
For orientation: Flow cytometry measures light scatter and fluorescence of single cells or particles in a stream.

Assay [8] has the same target. The assay can be described thus: flow cytometry competition on CHO cells expressing human PD-L1; cells pre-incubated with unlabeled antibody, then Alexa Fluor 647-labeled S70 (1 µg/mL). The procedure: as §2

Numbering of substitutions follows the chain as printed.

In general, EC50 (read off the curve) refers to the concentration that produces a half-maximal response.

T4 sequence (G7PSE7 entry or part of it C02H C02H): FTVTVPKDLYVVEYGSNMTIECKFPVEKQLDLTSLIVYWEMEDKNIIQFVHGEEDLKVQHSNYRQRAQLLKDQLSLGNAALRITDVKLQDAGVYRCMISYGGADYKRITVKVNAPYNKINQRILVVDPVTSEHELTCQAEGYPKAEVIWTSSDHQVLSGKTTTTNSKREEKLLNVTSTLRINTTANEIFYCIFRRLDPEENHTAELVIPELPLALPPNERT
T3 sequence (Q9NZQ7 19-290): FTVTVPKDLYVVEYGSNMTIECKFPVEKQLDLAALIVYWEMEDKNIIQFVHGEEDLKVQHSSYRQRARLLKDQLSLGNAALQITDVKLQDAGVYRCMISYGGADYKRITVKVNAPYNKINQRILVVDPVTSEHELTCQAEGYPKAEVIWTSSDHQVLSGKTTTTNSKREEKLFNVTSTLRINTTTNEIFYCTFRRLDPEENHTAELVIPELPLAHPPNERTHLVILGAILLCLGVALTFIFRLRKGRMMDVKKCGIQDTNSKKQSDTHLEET
T1 sequence (Q9EP73 19-238, stated change not applied): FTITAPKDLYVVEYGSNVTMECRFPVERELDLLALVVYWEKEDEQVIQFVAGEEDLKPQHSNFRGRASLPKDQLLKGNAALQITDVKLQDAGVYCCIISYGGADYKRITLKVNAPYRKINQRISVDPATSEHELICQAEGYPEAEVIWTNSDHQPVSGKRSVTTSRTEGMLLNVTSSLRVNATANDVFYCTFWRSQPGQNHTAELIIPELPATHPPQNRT

B1: 3C5-2G12 IgM antibody (antibody)
heavy: QVQLKESGPGLVAPSQSLSITCTVSGFSLTSYDISWVRQPPGKGLEWLGVIWTGVGTNYNSAFMSRLSISKDNSKSQVFLKMNSLQTDDTAMYYCVRDPYYYGMDYWGQGTSVTVSSGSASAPTLFPLVSCENSPSDTSSVAVGCLAQDFLPDSITFSWKYKNNSDISSTRGFPSVLRGGKYAATSQVLLPSKDVMQGTDEHVVCKVQHPNGNKEKNVPLPVIAELPPKVSVFVPPRDGFFGNPRKSKLICQATGFSPRQIQVSWLREGKQVGSGVTTDQVQAEAKESGPTTYKVTSTLTIKESDWLSQSMFTCRVDHRGLTFQQNASSMCVPDQDTAIRVFAIPPSFASIFLTKSTKLTCLVTDLTTYDSVTISWTRQNGEAVKTHTNISESHPNATFSAVGEASICEDDWNSGERFTCTVTHTDLPSPLKQTISRPKGVALHRPDVYLLPPAREQLNLRESATITCLVTGFSPADVFVQWMQRGQPLSPEKYVTSAPMPEPQAPGRYFAHSILTVSEEEWNTGETYTCVVAHEALPNRVTERTVDKSTGKPTLYNVSLVMSDTAGTCY
light: DIQMNQSPSSLSASLGDTITITCRASQDISIWLSWYQQKPGNIPELLIYKASNLHTGVPPRFSGSGSGTDFTLTISSLQPEDIATYYCLQSQSFPRTFGGGTKLEIKRTVAAPSVFIFPPSDEQLKSGTASVVCLLNNFYPREAKVQWKVDNALQSGNSQESVTEQDSKDSTYSLSSTLTLSKADYEKHKVYACEVTHQGLSSPVTKSFNRGEC
With B1, the binding result in assay [1] and in assay [2] was “no binding (tested: 3 ug/mL)” in each case. In addition, the “EC50, PD-1/PD-L1 blockade (% PDL1 Blockade, NFAT-luciferase reporter)” value in assay [3] is 61 pM. In addition, in assay [4], the “EC50 (read off the curve)” value was roughly 7 ng/mL. Also, the “EC50 in the PD-1/PD-L1 blockade assay (luciferase reporter activity, 4 parameter curve fit)” value in assay [5] was 61 µM. Also, the “EC50, PD-1/PD-L1 blockade (PDL1 Blockade, luciferase signal)” value (“EC50 … (PDL1 Blockade, luciferase signal)” below) in assay [6] came to 94 pM.

B2: 3C5-2G12 IgM + J antibody (antibody)
heavy: B1 heavy
light: B1 light
chain: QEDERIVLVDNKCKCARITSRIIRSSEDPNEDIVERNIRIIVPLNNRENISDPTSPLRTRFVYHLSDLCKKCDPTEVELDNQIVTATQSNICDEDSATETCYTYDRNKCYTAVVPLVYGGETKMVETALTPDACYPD
notes: also called 3C5.2G12 IgM+wtJ; 3C5.2G12 IgM+J chain
As to B2, the binding result in assay [1] and in assay [2] was “no binding (tested: 3 ug/mL)” each time. Also, in assay [3], the “EC50, PD-1/PD-L1 blockade (% PDL1 Blockade, NFAT-luciferase reporter)” value was determined as 96 pM. Also, the “EC50 (read off the curve)” value in assay [4] was roughly 8 ng/mL. For the same molecule, in assay [5], the “EC50 in the PD-1/PD-L1 blockade assay (luciferase reporter activity, 4 parameter curve fit)” value amounted to 96 µM.

B3: 3C5-2G12 IgG1 antibody (antibody)
heavy: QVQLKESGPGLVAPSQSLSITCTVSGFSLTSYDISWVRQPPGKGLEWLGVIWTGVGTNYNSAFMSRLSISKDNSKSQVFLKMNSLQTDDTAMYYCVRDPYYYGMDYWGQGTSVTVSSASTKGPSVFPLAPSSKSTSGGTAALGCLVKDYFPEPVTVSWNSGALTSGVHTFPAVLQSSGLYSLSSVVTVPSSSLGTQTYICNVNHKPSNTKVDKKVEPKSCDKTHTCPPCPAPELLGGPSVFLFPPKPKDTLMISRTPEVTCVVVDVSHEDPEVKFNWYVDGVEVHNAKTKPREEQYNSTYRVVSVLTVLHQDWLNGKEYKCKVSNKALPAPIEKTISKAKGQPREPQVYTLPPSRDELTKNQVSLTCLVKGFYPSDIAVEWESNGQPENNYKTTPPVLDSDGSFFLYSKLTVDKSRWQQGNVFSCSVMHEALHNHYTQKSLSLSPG
light: B1 light
notes: also called 3C5 (IgG); 3C5 antibody (IgG format)
For the molecule B3, the binding result in assay [1] and in assay [2] was “no binding (tested: 3 ug/mL)” throughout. The “EC50, PD-1/PD-L1 blockade (% PDL1 Blockade, NFAT-luciferase reporter)” value in assay [3] was 210 pM. Also, the “EC50 (read off the curve)” value in assay [4] is roughly 6 ng/mL. Moreover, the “EC50 … (PDL1 Blockade, luciferase signal)” value in assay [6] turned out to be 251 pM. Further, the “IC50 (read off the curve)” value in assay [7] is roughly 0.01 µg/mL; in assay [8], roughly 0.02 µg/mL.

B4: h3C5H3-h3C5L2 (humanized 3C5, IgG) (antibody, V domains shown)
VH: QVQLQESGPGLVKPSETLSITCTVSGFSLTSYDISWVRQPPGKGLEWLGVIWTGVGTNYNPSFKSRLTISKDTSKNQVSLKMSSLTAADTAVYYCVRDPYYYGMDYWGQGTLVTVSS
VL: DIQMTQSPSSLSASVGDRITITCRASQDISIWLSWYQQKPGKAPKLLIYKASNLHTGVPSRFSGSGSGTDFTLTISSLQPEDFATYYCLQSQSFPRTFGQGTKLEIKR
For B4, the “EC50 … (PDL1 Blockade, luciferase signal)” value in assay [6] was 214 pM.

B5: h3C5H4-h3C5L2 (humanized 3C5, IgG) (antibody, V domains shown)
VH: B4 VH with V37I, T73N
VL: B4 VL
For the molecule B5, the “EC50 … (PDL1 Blockade, luciferase signal)” value in assay [6] came out at 296 pM.

B6: h3C5H1-h3C5L1 (humanized 3C5, IgG) (antibody, V domains shown)
VH: B4 VH with I20L, V37I, L48I, F63L, L67V, K71V, V78F, M82L, L85V, V96A
VL: B4 VL with I19V
Consider B6, for which the “EC50 … (PDL1 Blockade, luciferase signal)” value in assay [6] came to 221 pM.

B7: h3C5H2-h3C5L2 (humanized 3C5, IgG) (antibody, V domains shown)
VH: B4 VH with I20L, V37I, F63L, L67V, V78F, M82L, L85V, V96A
VL: B4 VL
Turning to B7, in assay [6], the “EC50 … (PDL1 Blockade, luciferase signal)” value was found to be 381 pM.

The record behind these values is US20240002514A1 (IGM BIOSCIENCES, published 2024).
